According to US7981423B2, “Rage fusion proteins” (Transtech Pharma, Inc., priority 2004, dated 2011):

Experiments:
[1] = cited from earlier work
[2] = normal and diabetic rats; retention of immunoreactivity sRAGE; cited from earlier work
amphoterin (Ampho) = biological target: T1, amphoterin (Ampho) (Homo sapiens, UniProt P09429); assay: In vitro ligand binding ELISA, immobilized amphoterin; settings: various dilutions of fusion protein; FIG. 7
T1 sequence (P09429 1-215): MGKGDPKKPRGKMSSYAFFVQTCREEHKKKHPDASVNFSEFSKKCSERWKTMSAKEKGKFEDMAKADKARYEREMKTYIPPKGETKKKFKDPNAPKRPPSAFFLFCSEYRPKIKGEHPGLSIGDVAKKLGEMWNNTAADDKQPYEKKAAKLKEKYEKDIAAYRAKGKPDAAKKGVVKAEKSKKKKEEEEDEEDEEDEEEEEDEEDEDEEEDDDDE
Method: (§1) For example, the RAGE fusion protein may be used in a binding assay to identify potential RAGE ligands. In one example embodiment of such a binding assay, a known RAGE ligand may coated onto a solid substrate (e.g., Maxisorb plates) at a concentration of about 5 micrograms per well, where each well contains a total volume of about 100 microliters (μL). The plates may be incubated at 4° C. overnight to allow the ligand to absorb. Alternatively, shorter incubation periods at higher temperature (e.g., room temperature) may be used. […] The fusion protein bound to the immobilized ligand may be detected in a variety of ways. […] The bound complex may be detected by adding the alkaline phosphatase substrate, para-nitrophenylphosphate (PNPP), and measuring conversion of PNPP to para-nitrophenol (PNP) as an increase in absorbance at 405 nm. […] Binding was detected by the addition of an immunodetection complex containing a monoclonal mouse anti-human IgG1 diluted 1:11,000 to a final assay concentration (FAC) of 21 ng/100 μL, a biotinylated goat anti-mouse IgG diluted 1:500, to a FAC of […], and an avidin-linked alkaline phosphatase. […] Binding of the complex to the immobilized fusion protein was quantified by measuring conversion of PNPP to para-nitrophenol (PNP) which was-measured spectrophotornetrically at 405 nm. […]

amyloid-beta (Abeta) = biological target: T2, amyloid-beta (Abeta) (Homo sapiens, UniProt P05067); assay: In vitro ligand binding ELISA, immobilized amyloid-beta; settings: various dilutions of fusion protein; FIG. 7
T2 construct: Amyloid Beta (1-40) from Biosource; purchased Biosource
Method: as §1

S100b (S100) = biological target: T3, S100b (S100) (Homo sapiens, UniProt P04271); assay: In vitro ligand binding ELISA, immobilized S100b; settings: various dilutions of fusion protein; FIG. 7
T3 sequence (P04271 1-92): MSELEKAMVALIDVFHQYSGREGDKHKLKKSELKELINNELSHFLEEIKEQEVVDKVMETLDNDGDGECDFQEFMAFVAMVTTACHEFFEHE
Method: as §1

APP transgenic mice = assay: Mouse model of AD (APP transgenic mice); assay type: in vivo; settings: treated for 3 months, versus vehicle and human IgG1
Method: Experiments were performed to evaluate whether TTP-4000 could affect amyloid formation and cognitive dysfunction in a mouse model of AD. The experiments utilized transgenic mice expressing the human Swedish mutant amyloid precursor protein (APP) under the control of the PDGF-B chain promoter. Over time, these mice generate high levels of the RAGE ligand, amyloid beta (Aβ).
The APP mice (male) used in this experiment were designed by microinjection of the human APP gene (with the Swedish and London mutations) into mouse eggs under the control of the platelet-derived growth factor B (PDGF-B) chain gene promoter. The mice were generated on a C57BL/6 background and were developed by Molecular Therapeutics Inc. Animals were fed ad libituin and maintained by brother sister mating. The mice generated from this construct develop amyloid deposits starting at 6 months of age. Animals were aged for 6 months and then maintained for 90 days and sacrificed for amyloid quantification.
APP transgenic mice were administered vehicle or TTP4000 every other day [qod (i.p.)] for 90 days starting at 6 months of age. At the end of the experiment, animals were sacrificed and examined for AP plaque burden in the brain (i.e., plaque number). A 6-month control APP group was used to determine the baseline of amyloid deposits. In addition, at the end of the study, the animals were subjected to behavioral (Morris water maze) analysis. The investigators were blinded to the study compounds. Samples were given to the mice at 0.25 ml/mouse/every other day.
For histological examination, the animals were anesthetized with an intraperitoneal injection (IP) of sodium pentobarbital (50 mg/kg). The animals were transcardially perfused with 4° C., phosphate-buffered saline (PBS) followed by 4% paraformaldehyde. The brains were removed and placed in 4% paraformaldehyde over night. The brains were processed to paraffin and embedded. Ten serial 30-μm thick sections through the brain were obtained. Sections were subjected to primary antibody overnight at 4° C. (Aβ peptide antibody) in order to detect the amyloid deposits in the brain of the transgenic animals (Guo et al., J. Neurosci., 22:5900-5909 (2002)). Sections were washed in Tris-buffered saline (TBS) and secondary antibody was added and incubated for 1 hour at room temperature. After washing, the sections were incubated as instructed in the Vector ABC Elite kit (Vector Laboratories) and stained with […] (DAB). The reactions were stopped in water and cover-slipped after treatment with xylene. The amyloid area in each section was determined with a computer-assisted image analysis system, consisting of a Power Macintosh computer equipped with a Quick Capture frame grabber card, Hitachi CCD camera mounted on an Olympus microscope and camera stand. NIH Image Analysis Software, v. 1.55 was used. The images were captured and the total area of amyloid was determined over the ten sections. A single operator blinded to treatment status performed all measurements. Summing the amyloid volumes of the sections and dividing by the total number of sections was done to calculate the amyloid volume.
For quantitative analysis, an enzyme-linked immunosorbent assay (ELISA) was used to measure the levels of human total Aβ, Aβtotal and Aβ1-42 in the brains of APP transgenic mice (Biosource International., Camarillo, Calif.). Aβtotal and Aβ1-42 were extracted from mouse brains by guanidine hydrochloride and quantified as described by the manufacturer. […]

T2 sequence (P05067 672-711 limits assumed): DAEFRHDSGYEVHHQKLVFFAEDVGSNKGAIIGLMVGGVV

For “sRAGE: soluble RAGE: the RAGE protein that does not include the transmembrane region or the cytoplasmic tail [reference compound]”, the half-life in plasma [1] is listed as “only a few hours”.

For “human sRAGE: human soluble RAGE (e.g., SEQ ID NO: 4) [reference compound]”, the half-life in plasma [1] is given as “about 2 hours” and the half-life [2] is given as “less than 2 hours”.

B1: TTP-3000: three domain RAGE fusion protein (SEQ ID NO: 35): human RAGE amino acids 1-136 linked to CH2 and CH3 domains of human IgG (protein)
chain: MAAGTAVGAWVLVLSLWGAVVGAQNITARIGEPLVLKCKGAPKKPPQRLEWKLNTGRTEAWKVLSPQGGGPWDSVARVLPNGSLFLPAVGIQDEGIFRCQAMNRNGKETKSNYRVRVYQIPGKPEIVDSASELTAGPSVFLFPPKPKDTLMISRTPEVTCVVVDVSHEDPEVKFNWYVDGVEVHNAKTKPREEQYNSTYRVVSVLTVLHQDWLNGKEYKCKVSNKALPAPIEKTISKAKGQPREPQVYTLPPSRDELTKNQVSLTCLVKGFYPSDIAVEWESNGQPENNYKTTPPVLDSDGSFFLYSKLTVDKSRWQQGNVFSCSVMHEALHNHYTQKSLSLSPGK
In the case of B1, the “binding to immobilized amphoterin (absorbance at 405 nm)” value (amphoterin (Ampho)) is reported as “specifically interact”, the “binding to immobilized amyloid-beta (absorbance at 405 nm)” value (amyloid-beta (Abeta)) is reported as “specifically interact” and the “binding to immobilized S100b (absorbance at 405 nm)” value (S100b (S100)) is reported as “specifically interact”.

B2: rodent sRAGE: rodent soluble RAGE (protein, UniProt Q62151 23-340, looked up)
extracellular domain: GQNITARIGEPLVLSCKGAPKKPPQQLEWKLNTGRTEAWKVLSPQGGPWDSVARILPNGSLLLPATGIVDEGTFRCRATNRRGKEVKSNYRVRVYQIPGKPEIVDPASELTASVPNKVGTCVSEGSYPAGTLSWHLDGKLLIPDGKETLVKEETRRHPETGLFTLRSELTVIPTQGGTHPTFSCSFSLGLPRRRPLNTAPIQLRVREPGPPEGIQLLVEPEGGIVAPGGTVTLTCAISAQPPPQVHWIKDGAPLPLAPSPVLLLPEVGHEDEGTYSCVATHPSHGPQESPPVSIRVTETGDEGPAEGSVGESGLGTLA
modifications: extracellular domain
notes: rodent soluble RAGE
In the case of B2, the half-life [2] is listed as “approximately 20 hours”.

B3: mouse sRAGE: mouse soluble RAGE used as comparator in the AD mouse model (protein, UniProt Q62151 23-340, looked up)
extracellular domain: B2 extracellular domain
modifications: extracellular domain
notes: mouse soluble RAGE used as comparator in the AD mouse model
In the case of B3, the “Aβ plaques in the brain” value (APP transgenic mice; FIG. 14A) is reported as “fewer Aβ plaques” and the “cognitive dysfunction (Morris water maze)” value (APP transgenic mice; FIG. 14B) is reported as “less cognitive dysfunction”.
